In publication PMC5089960 (Angewandte Chemie (International ed. in English), 2016):

Molecular target: the molecule itself
Test: crystal structure

B1: PsoE (enzyme, A. fumigatus)
chain: MVFGTLYTFPGDQCRTIAIKAVAKANGLDLDIRETPRTPDHLSISKLGKVPAFQGADSFKLFECMAIALYITSQNEQTTLLGKDKKEYAEIIKWMSFFNTEIVILMTQQLLPQLGVIPYDRDQVEFFANMTQRSVDVVEEYLQDRTFLVGDQLSLADLFCAGNISLGFQFFYGKAWRQQNPNVSRWYEMVCHQPIYAAVTDKFQLLDEPKLTNNPPEKKPETVPKNGAAVAIEATQA
Q: B1 was tested. Which “stoichiometry N” value did it give?
A: 2
